{"source": "paper PMC12209437", "about": "“Tailoring a novel colorectal cancer stem cell-targeted therapy by inhibiting the SMYD3/c-MYC axis” (Signal Transduction and Targeted Therapy, 2025)", "binders": {"B1": {"name": "full-length HIS-tagged SMYD3 recombinant protein (enzyme, human, UniProt Q9H7B4 1-428, looked up)", "chain": "MEPLKVEKFATAKRGNGLRAVTPLRPGELLFRSDPLAYTVCKGSRGVVCDRCLLGKEKLMRCSQCRVAKYCSAKCQKKAWPDHKRECKCLKSCKPRYPPDSVRLLGRVVFKLMDGAPSESEKLYSFYDLESNINKLTEDKKEGLRQLVMTFQHFMREEIQDASQLPPAFDLFEAFAKVICNSFTICNAEMQEVGVGLYPSISLLNHSCDPNCSIVFNGPHLLLRAVRDIEVGEELTICYLDMLMTSEERRKQLRDQYCFECDCFRCQTQDKDADMLTGDEQVWKEVQESLKKIEELKAHWKWEQVLAMCQAIISSNSERLPDINIYQLKVLDCAMDACINLGLLEEALFYGTRTMEPYRIFFPGSHPVRGVQVMKVGKLQLHQGMFPQAMKNLRLAFDIMRVTHGREHSLIEDLILLLEECDANIRAS", "notes": "SMYD3 (lysine methyltransferase SET and MYND Domain Containing 3), full length, from the plasmid pET28-MHL-SMYD3 (Addgene 32048); no species is printed for the Addgene plasmid; also called HIS-SMYD3; HIS-SMYD3 fusion protein; source: E. coli BL21 (DE3), purified (Dynabeads HIS-Tag Isolation and Pulldown)"}, "B2": {"name": "P14 ext1 (E42EENFYQQQ50) (peptide)", "peptide": "EEENFYQQQ", "notes": "numbers count on the 454-residue isoform; source: bought: custom purchased from Thermo Fisher Scientific"}, "B3": {"name": "P14 ext2 (P36YFYCDEEENFYQQQQQSEL55) (peptide)", "peptide": "PYFYCDEEENFYQQQQQSEL", "notes": "as for B2"}, "B4": {"name": "FLAG c-MYC M3 (aa 1-165) (domain or fragment, human, UniProt P01106-2 1-165, looked up)", "chain": "MDFFRVVENQQPPATMPLNVSFTNRNYDLDYDSVQPYFYCDEEENFYQQQQQSELQPPAPSEDIWKKFELLPTPPLSPSRRSGLCSPSYVAVTPFSLRGDNDGGGGSFSTADQLEMVTELLGGDMVNQSFICDPDDETFIKNIIIQDCMWSGFSAAAKLVSEKLA", "notes": "c-MYC, human, residues 1-165 of the 454-residue form; amplified from p3xFLAG CMV14 c-MYC-WT, itself made from pcDNA3-c-MYC (Addgene 16011); Vector p3xFLAG-CMV14 (Sigma E7908); also called p3xFLAG CMV14 c-MYC-M3"}}, "settings_in_all_cases": "both partners purified", "key": {"[1]": {"target": "T1, untagged human full-length c-MYC protein (human, UniProt P01106-2 1-454)", "T1 construct": "c-MYC, human, full length, untagged; also called c-MYC recombinant protein; untagged recombinant c-MYC protein; source: bought: Abcam ab169901, expressed in E. coli", "assay": "pull-down; HIS-SMYD3 incubated with recombinant c-MYC or FLAG c-MYC fragments for 1 h at 4 °C, precipitated with Dynabeads HIS-Tag Isolation and Pulldown, washed in buffer A (20 mM Tris-HCl pH 8, 150 mM KCl, 5 mM MgCl2, 0.2 mM EDTA, 10% glycerol, 0.1% NP-40, 1 mM DTT), immunoblot"}, "[2]": {"target": "B1", "assay": "pull-down; competition assay: 500 ng HIS-SMYD3 and 200 ng untagged full-length c-MYC, 1 h at 4 °C, with escalating doses (0, 1, 5, 25, 125 µM) of P14, P14ext1 or P14ext2; precipitated on histidine beads, immunoblot with anti-c-MYC and anti-HIS"}, "[3]": {"target": "B1", "assay": "pull-down; HIS-SMYD3 incubated with recombinant c-MYC or FLAG c-MYC fragments for 1 h at 4 °C, precipitated with Dynabeads HIS-Tag Isolation and Pulldown, washed in buffer A (20 mM Tris-HCl pH 8, 150 mM KCl, 5 mM MgCl2, 0.2 mM EDTA, 10% glycerol, 0.1% NP-40, 1 mM DTT), immunoblot"}}, "data": [{"binder": "B1", "values": [{"measurement": "binding result", "setting": "[1]", "value": "binds"}]}, {"binder": "B2", "values": [{"measurement": "binding result", "setting": "[2]", "value": "binds"}]}, {"binder": "B3", "values": [{"measurement": "binding result", "setting": "[2]", "value": "binds"}]}, {"binder": "B4", "values": [{"measurement": "binding result", "setting": "[3]", "value": "binds"}]}]}
